Experiment [1] relates to DYT-TOR1A MEF EVs. As to the kind of experiment: Quantitative LC-MS/MS proteomics of EVs from drug-treated DYT-TOR1A MEF cultures (ritonavir, salubrinal). The experiment is classed as cell-based, mouse. The arrangement: key to RTV Corrective Direction / RTV Corrective Direction, Grwd1 / RTV Corrective Direction, Srrm2 / RTV Corrective Direction, Rbm17 / RTV Corrective Direction, Dcaf8 / RTV Corrective Direction, Edil3 / RTV Corrective Direction, Timp3 / RTV Corrective Direction, Heatr3 / RTV Corrective Direction, Brd4 / RTV Corrective Direction, P3h4 / RTV Corrective Direction, Pacsin3 / RTV Corrective Direction, Naa50 / RTV Corrective Direction, Lpar6 / RTV Corrective Direction, Ndrg1 / RTV Corrective Direction, Kntc1 / RTV Corrective Direction, Cdk11b / RTV Corrective Direction, Sumo1 / RTV Corrective Direction, Lsm4 / RTV Corrective Direction, Hmga2 / RTV Corrective Direction, Cstf1 / RTV Corrective Direction, Tes / RTV Corrective Direction, Sbno1 / RTV Corrective Direction, Unc119b / RTV Corrective Direction, Cfdp1 / RTV Corrective Direction, Sec61b: YES = protein abundance effect opposite to DYT/WT. The note with it: EV protein abundance; for RTV Corrective Direction: DYT + RTV (ritonavir) vs DYT, direction compared with DYT/WT; for DYT + RTV/DYT Cohen's d: ritonavir (RTV)-treated DYT vs DYT.

Experiment [2] concerns WT MEF EVs. Nature of the experiment: Quantitative LC-MS/MS proteomics of EVs from ISRIB-treated WT MEF cultures. The experiment is classed as cell-based, mouse. The arrangement: key to ISRIB and DYT Parallel Direction / ISRIB and DYT Parallel Direction, Ctdsp1 / ISRIB and DYT Parallel Direction, Pcdh19 / ISRIB and DYT Parallel Direction, Tspan7 / ISRIB and DYT Parallel Direction, Myo1e / ISRIB and DYT Parallel Direction, Plpp3 / ISRIB and DYT Parallel Direction, Sh3bp4 / ISRIB and DYT Parallel Direction, Dnajc7 / ISRIB and DYT Parallel Direction, Drg1 / ISRIB and DYT Parallel Direction, Maea: YES = protein abundance effect similar to DYT/WT. The note with it: EV protein abundance; for WT + ISRIB/WT Cohen's d: ISRIB-treated WT vs WT; for ISRIB and DYT Parallel Direction: WT + ISRIB vs WT, direction compared with DYT/WT.

B1: Sec31a (protein, UniProt Q3UPL0 1-1230, looked up)
Protein transport protein …: MKLKEIDRTAMQAWSPAQNHPIYLATGTSAQQLDATFSTNASLEIFELDLSDPSLDMKSCATFSSSHRYHKLIWGPHKMDSKGDVSGVLIAGGENGNIILYDPSKIIAGDKEVVIAQKDKHTGPVRALDVNIFQTNLVASGANESEIYIWDLNNFATPMTPGAKTQPPEDISCIAWNRQVQHILASASPSGRATVWDLRKNEPIIKVSDHSNRMHCSGLAWHPDVATQMVLASEDDRLPVIQMWDLRFASSPLRVLENHARGILAVAWSMADPELLLSCGKDAKILCSNPNTGEVLYELPTNTQWCFDIQWCPRNPAVLSAASFDGRISVYSIMGGSIDGLRQKQVDKLSSSFGNLDPFGTGQPLPPLQIPQQSAQHSIVLPLKKPPKWIRRPVGASFSFGGKLVTFESVAVPLQQGAEQQRRQPVFISQVVTEKDFLNRSAQLQHAVQSQGFIGYCQKKIEASQTEFEKNVWSFLKVNFEEDSRGKYLELLGYRKEDLGQKIALALNKVDGPDVALKDSDQVAQSDGEESPAAEEQLLGERIKEEKQECDFLPSAGGTFNISVSGDIDGLITRALLTGNFESAVDLCLHDNRMADAIILAIAGGQELLAQTQKKYFAKSQSKITRLITAVVMKNWREIVESCDLKNWREALAAVLTYAKPDEFSALCDLLGTRLEREGDSLLRTQACLCYICAGNVERLVACWTKAQDGSSPLSLQDLIEKVVILRKAVQLTQALDTNTVGALLAEKMSQYASLLAAQGSIAAALAFLPDNTNQPNIVQLRDRLCKAQGKPVSGQESSQSPYERQPLSKGRPGPVAGHSQMPRVQTQQYYPHGENPPPPGFIMQGNVIPNPAAPLPTAPGHMPSQLPPYPQPQPYQPAQQYSFGTGGAAAYRPQQPVAPPASNAYPNTPYISPVASYSGQPQMYTAQQASSPTSSSAASFPPPSSGASFQHGGPGAPPSSSAYALPPGTTGTPPAASELPASQRTENQSFQDQASILEGPQNGWNDPPALNRVPKKKKMPENFMPPVPITSPIMNPSGDPQSQGLQQQPSTPGPLSSHASFPQQHLAGGQPFHGVQQPLAQTGMPPSFSKPNTEGAPGAPIGNTIQHVQALPTEKITKKPIPEEHLILKTTFEDLIQRCLSSATDPQTKRKLDDASKRLEFLYDKLREQTLSPTIINGLHSIARSIETRNYSEGLSVHTHIVSTSNFSETSAFMPVLKVVLSQASKLGV
For B1, in experiment [1], the “RTV Corrective Direction” value is listed as “YES” and the “DYT + RTV/DYT Cohen's d” value is recorded as 5.50. For the same molecule, in experiment [2], the “WT + ISRIB/WT Cohen's d” value is on record as −1.34; the “ISRIB and DYT Parallel Direction” value is given as “YES”.

B2: Scfd1 (protein, UniProt Q8BRF7 1-639, looked up)
Sec1 family domain-containing …: MVGSKMAATASIRERQTVALKRMLNFNVPHVKNSTGEPVWKVLIYDRFGQDIISPLLSVKELRDMGITLHLLLHSDRDPIPDVPAVYFVMPTEENIDRLCQDLRNQLYESYYLNFISAISRSKLEDIANAALAASAVTQVAKVFDQYLNFITLEDDMFVLCNQNKELVSYRAINRPDITDTEMETVMDTIVDSLFCFFVTLGAVPIIRCSRGTAAEMVAVKLDKKLRENLRDARNSLFTGDPLGTGQFSFQRPLLVLVDRNIDLATPLHHTWTYQALVHDVLDFHLNRVNLEESTGVENSPAGARPKRKNKKSYDLTPVDKFWQKHKGSPFPEVAESVQQELESYRAQEDEVKRLKSIMGLEGEDEGAISMLSDNTAKLTSAVSSLPELLEKKRLIDLHTNVATAVLEHIKARKLDVYFEYEEKIMSKTTLDKSLLDVISDPDAGTPEDKMRLFLIYYISAQQAPSEVDLEQYKKALTDAGCNLSPLQYIKQWKAFAKMASTPASYGNTTTKPMGLLSRVMNTGSQFVMEGVKNLVLKQQNLPVTRILDNLMEMKSNPETDDYRYFDPKMLRSNDSSVPRNKSPFQEAIVFVVGGGNYIEYQNLVDYIKAKQGKHILYGCSEIFNATQFIKQLSQLGQK
As for B2, in experiment [1], the “RTV Corrective Direction” value is “YES” and the “DYT + RTV/DYT Cohen's d” value is reported as 4.43. In addition, in experiment [2], the “WT + ISRIB/WT Cohen's d” value is −2.48; the “ISRIB and DYT Parallel Direction” value was “YES”.

B3: Mtap (protein, UniProt Q9CQ65 1-283, looked up)
S-methyl-5'-thioadenosine …: MASGSACTAVKIGIIGGTGLDDPEILEGRTEKYVDTPFGKPSDALILGKIKNVDCVLLARHGRQHTIMPSKVNYQANIWALKEEGCTHVIVTTACGSLREEIQPGDMVIIDQFIDRTSLRPQTFYDGSHCSARGVCHIPMAEPFCPKTREVLIETAKKLGLRCHSKGTIVTIEGPRFSSRAESLIFRTWGADVVNMTTVPEVVLAKEAGICYASIAMATDYDCWKEHEEAVSVDGVLKTMKENANKAKSLLLTTIPQIGSMEWSETLRNLKNMAQFSVLPPRH
In the case of B3, in experiment [1], the “RTV Corrective Direction” value is on record as “YES” and the “DYT + RTV/DYT Cohen's d” value turned out to be 3.50. Also, in experiment [2], the “WT + ISRIB/WT Cohen's d” value is given as −0.85; the “ISRIB and DYT Parallel Direction” value is “YES”.

B4: Efemp1 (protein, UniProt Q8BPB5 18-493, looked up)
EGF-containing fibulin-like …: QYTEETITYTQCTDGYEWDPIRQQCKDIDECDIVPDACKGGMKCVNHYGGYLCLPKTAQIIVNNEHPQQETPAAEASSGATTGTVAARSMATSGVVPGGGFMASATAVAGPEVQTGRNNFVIRRNPADPQRIPSNPSHRIQCAAGYEQSEHNVCQDIDECTSGTHNCRTDQVCINLRGSFTCQCLPGYQKRGEQCVDIDECTVPPYCHQRCVNTPGSFYCQCSPGFQLAANNYTCVDINECDASNQCAQQCYNILGSFICQCNQGYELSSDRLNCEDIDECRTSSYLCQYQCVNEPGKFSCMCPQGYEVVRSRTCQDINECETTNECREDEMCWNYHGGFRCYPRNPCQDHYVLTSENRCVCPVSNTMCRELPQSIVYKYMSIRSDRSVPSDIFQIQATMIYANTINTFRIKSGNENGEFYLRQTSPVSAMLVLVKSLSGPREYIVDLEMLTVSSIGTFRTSSVLRLTIIVGPFSF
As for B4, in experiment [1], the “RTV Corrective Direction” value is “YES” and the “DYT + RTV/DYT Cohen's d” value was −4.60. Also, in experiment [2], the “WT + ISRIB/WT Cohen's d” value came to 0.07; the “ISRIB and DYT Parallel Direction” value was “YES”.

B5: Hsd17b4 (protein, UniProt P51660 1-735, looked up)
Peroxisomal multifunctional …: MASPLRFDGRVVLVTGAGGGLGRAYALAFAERGALVIVNDLGGDFKGIGKGSSAADKVVAEIRRKGGKAVANYDSVEAGEKLVKTALDTFGRIDVVVNNAGILRDRSFSRISDEDWDIIHRVHLRGSFQVTRAAWDHMKKQNYGRILMTSSASGIYGNFGQANYSAAKLGILGLCNTLAIEGRKNNIHCNTIAPNAGSRMTETVLPEDLVEALKPEYVAPLVLWLCHESCEENGGLFEVGAGWIGKLRWERTLGAIVRKRNQPMTPEAVRDNWEKICDFSNASKPQTIQESTGGIVEVLHKVDSEGISPNRTSHAAPAATSGFVGAVGHKLPSFSSSYTELQSIMYALGVGASVKNPKDLKFVYEGSADFSCLPTFGVIVAQKSMMNGGLAEVPGLSFNFAKALHGEQYLELYKPLPRSGELKCEAVIADILDKGSGVVIVMDVYSYSGKELICYNQFSVFVVGSGGFGGKRTSEKLKAAVAVPNRPPDAVLRDATSLNQAALYRLSGDWNPLHIDPDFASVAGFEKPILHGLCTFGFSARHVLQQFADNDVSRFKAIKVRFAKPVYPGQTLQTEMWKEGNRIHFQTKVHETGDVVISNAYVDLVPASGVSTQTPSEGGELQSALVFGEIGRRLKSVGREVVKKANAVFEWHITKGGTVAAKWTIDLKSGSGEVYQGPAKGSADVTIIISDEDFMEVVFGKLDPQKAFFSGRLKARGNIMLSQKLQMILKDYAKL
In the case of B5, in experiment [1], the “RTV Corrective Direction” value is listed as “YES” and the “DYT + RTV/DYT Cohen's d” value is recorded as 4.01. For the same molecule, in experiment [2], the “WT + ISRIB/WT Cohen's d” value is −2.20; the “ISRIB and DYT Parallel Direction” value is reported as “YES”.

B6: Mri1 (protein, UniProt Q9CQT1 1-369, looked up)
Methylthioribose-1-phosphate …: MTLEAIRYSPGSLQILDQLQLPEHCHYEALSSVQQASEAIRAMKVRGAPAIALVGCLSLAVELRAGAGGPGLAALVAFVRDQLRLLVAARPTAVNMARAARDLGQVAAQEAEREGATEETVRERVIRFAEDMLEKDLKDNRSIGDLGARHLLEQTNPRGGKVTVLTHCNTGALATAGYGTALGVIRSLHEMGRLEHTFCTETRPYNQGARLTAFELVYEQIPATLITDSMAAAAMAHRGVSAVVVGADRVVANGDTANKIGTYQLAIVAKHHGVPFYVAAPSSSCDLHLETGKEIVIEERPSQELTDLNGVRIAAQGIRVWNPAFDVTPHELITGGIITELGVFAPEELRGALSASVFSEGQTLDSPWV
In the case of B6, in experiment [1], the “RTV Corrective Direction” value is reported as “YES” and the “DYT + RTV/DYT Cohen's d” value was found to be 5.85. In addition, in experiment [2], the “WT + ISRIB/WT Cohen's d” value is listed as −0.01; the “ISRIB and DYT Parallel Direction” value is on record as “YES”.

B7: Atp6v1h (protein, UniProt Q8BVE3 1-483, looked up)
V-type proton ATPase subunit H: MTKMDIRGAVDAAVPTNIIAAKAAEVRANKVNWQSYLQGQMISAEDCEFIQRFEMKRSSEDKQEMLQTEGSQCAKTFINLMTHISKEQTVQYILTMVDDMLQENHQRVSIFFDYAKRSKSTAWPYFLPMLNRQDPFTVHMAARIIAKLAAWGKELMEGSDLNYYFNWIKTQLSSQKLRGSGVAVETGTISSSDSSQYVQCVAGCLQLMLRVNEYRFAWVEADGVNCIMGVLSNKCGFQLQYQMIFSIWLLAFSPQMCEHLRRYNIIPVLSDILQESVKEKVTRIILAAFRNFLEKSTERETRQEYALAMIQCKVLKQLENLEQQKYDDEDISEDIKFLLEKLGESVQDLSSFDEYSSELKSGRLEWSPVHKSEKFWRENAVRLNEKNYELLKILTKLLEVSDDPQVLAVAAHDVGEYVRHYPRGKRVIEQLGGKQLVMNHMHHEDQQVRYNALLAVQKLMVHNWEYLGKQLQSEQPQTAAARS
As to B7, in experiment [1], the “RTV Corrective Direction” value is on record as “YES” and the “DYT + RTV/DYT Cohen's d” value is 4.82. In experiment [2], the “WT + ISRIB/WT Cohen's d” value was −0.66; the “ISRIB and DYT Parallel Direction” value was “YES”.

The values above are taken from US20260266848A1, “COMPOSITIONS AND METHODS FOR DIAGNOSING AND TREATING DYSTONIA” (Duke University, priority 2023, published 2026).
